Data as given in IntAct's records for PubMed 31515488.

B1: Four and a half LIM domains protein 2 (Homo sapiens), Q14192 (parent)
chain: MTERFDCHHCNESLFGKKYILREESPYCVVCFETLFANTCEECGKPIGCDCKDLSYKDRHWHEACFHCSQCRNSLVDKPFAAKEDQLLCTDCYSNEYSSKCQECKKTIMPGTRKMEYKGSSWHETCFICHRCQQPIGTKSFIPKDNQNFCVPCYEKQHAMQCVQCKKPITTGGVTYREQPWHKECFVCTACRKQLSGQRFTARDDFAYCLNCFCDLYAKKCAGCTNPISGLGGTKYISFEERQWHNDCFNCKKCSLSLVGRGFLTERDDILCPDCGKDI
partner: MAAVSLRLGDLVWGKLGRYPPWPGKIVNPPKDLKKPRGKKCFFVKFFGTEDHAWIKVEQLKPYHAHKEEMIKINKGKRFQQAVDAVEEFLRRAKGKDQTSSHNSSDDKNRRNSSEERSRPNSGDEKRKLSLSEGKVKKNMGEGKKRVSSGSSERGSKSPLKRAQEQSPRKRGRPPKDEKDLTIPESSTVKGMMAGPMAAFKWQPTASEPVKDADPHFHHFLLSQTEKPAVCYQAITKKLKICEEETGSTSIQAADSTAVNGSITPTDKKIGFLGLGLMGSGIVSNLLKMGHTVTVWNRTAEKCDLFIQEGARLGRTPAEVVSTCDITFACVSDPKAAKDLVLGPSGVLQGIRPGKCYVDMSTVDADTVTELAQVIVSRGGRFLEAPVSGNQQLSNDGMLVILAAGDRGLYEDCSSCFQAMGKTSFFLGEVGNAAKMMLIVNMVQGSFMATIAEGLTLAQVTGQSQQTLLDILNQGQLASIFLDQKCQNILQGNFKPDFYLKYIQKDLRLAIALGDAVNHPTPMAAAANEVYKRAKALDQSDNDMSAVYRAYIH
B2: Serine/arginine-rich splicing factor 4 (Homo sapiens), Q08170 (parent)
chain: MPRVYIGRLSYQARERDVERFFKGYGKILEVDLKNGYGFVEFDDLRDADDAVYELNGKDLCGERVIVEHARGPRRDGSYGSGRSGYGYRRSGRDKYGPPTRTEYRLIVENLSSRCSWQDLKDYMRQAGEVTYADAHKGRKNEGVIEFVSYSDMKRALEKLDGTEVNGRKIRLVEDKPGSRRRRSYSRSRSHSRSRSRSRHSRKSRSRSGSSKSSHSKSRSRSRSGSRSRSKSRSRSQSRSRSKKEKSRSPSKEKSRSRSHSAGKSRSKSKDQAEEKIQNNDNVGKPKSRSPSRHKSKSKSRSRSQERRVEEEKRGSVSRGRSQEKSLRQSRSRSRSKGGSRSRSRSRSKSKDKRKGRKRSREESRSRSRSRSKSERSRKRGSKRDSKAGSSKKKKKEDTDRSQSRSPSRSVSKEREHAKSESSQREGRGESENAGTNQETRSRSRSNSKSKPNLPSESRSRSKSASKTRSRSKSRSRSASRSPSRSRSRSHSRS
B3: NF-kappa-B inhibitor delta (Homo sapiens), Q8NI38 (parent)
chain: MEAGPWRVSAPPSGPPQFPAVVPGPSLEVARAHMLALGPQQLLAQDEEGDTLLHLFAARGLRWAAYAAAEVLQVYRRLDIREHKGKTPLLVAAAANQPLIVEDLLNLGAEPNAADHQGRSVLHVAATYGLPGVLLAVLNSGVQVDLEARDFEGLTPLHTAILALNVAMRPSDLCPRVLSTQARDRLDCVHMLLQMGANHTSQEIKSNKTVLHLAVQAANPTLVQLLLELPRGDLRTFVNMKAHGNTALHMAAALPPGPAQEAIVRHLLAAGADPTLRNLENEQPVHLLRPGPGPEGLRQLLKRSRVAPPGLSS
B4: Centrosomal protein of 55 kDa (Homo sapiens), Q53EZ4 (parent)
chain: MSSRSTKDLIKSKWGSKPSNSKSETTLEKLKGEIAHLKTSVDEITSGKGKLTDKERHRLLEKIRVLEAEKEKNAYQLTEKDKEIQRLRDQLKARYSTTTLLEQLEETTREGERREQVLKALSEEKDVLKQQLSAATSRIAELESKTNTLRLSQTVAPNCFNSSINNIHEMEIQLKDALEKNQQWLVYDQQREVYVKGLLAKIFELEKKTETAAHSLPQQTKKPESEGYLQEEKQKCYNDLLASAKKDLEVERQTITQLSFELSEFRRKYEETQKEVHNLNQLLYSQRRADVQHLEDDRHKTEKIQKLREENDIARGKLEEEKKRSEELLSQVQFLYTSLLKQQEEQTRVALLEQQMQACTLDFENEKLDRQHVQHQLHVILKELRKARNQITQLESLKQLHEFAITEPLVTFQGETENREKVAASPKSPTAALNESLVECPKCNIQYPATEHRDLLVHVEYCSK
partner: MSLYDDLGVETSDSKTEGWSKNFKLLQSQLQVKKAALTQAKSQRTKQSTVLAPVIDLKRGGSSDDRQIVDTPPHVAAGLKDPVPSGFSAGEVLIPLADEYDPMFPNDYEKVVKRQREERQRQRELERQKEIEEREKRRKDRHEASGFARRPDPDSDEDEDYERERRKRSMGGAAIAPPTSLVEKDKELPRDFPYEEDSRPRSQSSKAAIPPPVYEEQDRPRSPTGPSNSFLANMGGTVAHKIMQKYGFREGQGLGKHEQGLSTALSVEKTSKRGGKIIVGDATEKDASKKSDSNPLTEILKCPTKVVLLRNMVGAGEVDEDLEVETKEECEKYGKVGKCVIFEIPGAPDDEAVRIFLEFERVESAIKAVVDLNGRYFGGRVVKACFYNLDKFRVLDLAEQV
B5: Histone-lysine N-methyltransferase SMYD1 (Homo sapiens), Q8NB12 (parent)
chain: MTIGRMENVEVFTAEGKGRGLKATKEFWAADIIFAERAYSAVVFDSLVNFVCHTCFKRQEKLHRCGQCKFAHYCDRTCQKDAWLNHKNECSAIKRYGKVPNENIRLAARIMWRVEREGTGLTEGCLVSVDDLQNHVEHFGEEEQKDLRVDVDTFLQYWPPQSQQFSMQYISHIFGVINCNGFTLSDQRGLQAVGVGIFPNLGLVNHDCWPNCTVIFNNGNHEAVKSMFHTQMRIELRALGKISEGEELTVSYIDFLNVSEERKRQLKKQYYFDCTCEHCQKKLKDDLFLGVKDNPKPSQEVVKEMIQFSKDTLEKIDKARSEGLYHEVVKLCRECLEKQEPVFADTNIYMLRMLSIVSEVLSYLQAFEEASFYARRMVDGYMKLYHPNNAQLGMAVMRAGLTNWHAGNIEVGHGMICKAYAILLVTHGPSHPITKDLEAMRVQTEMELRMFRQNEFMYYKMREAALNNQPMQVMAEPSNEPSPALFHKKQ
B6: Uncharacterized protein C12orf50 (Homo sapiens), Q8NA57 (parent)
chain: MEMQQNCSISCFWETQPLGCVKISCIFYHSKPRNINGLFLPPSSNITLQKEIQEGIPLQSQSQEPLKPQENISRPIHHPLVLKTNFEEEEEVDEQNDASSLWTKTPEEIEEKRAIKEMCYKSGEYYRFHTPPDILSSKSMTPTAEKQLEKPLENGSELQEGDSLTVPTKLSQYERQGEIKTSLHGKPKTDIAAFENGGGDCYVPQRVIFLGVDESEALTEEKEITISKCSNTKDNKDSPHPKHSLTTRLVPTTHVLNATENISMKCREDPSSMNDVQPVKKPHFKGVKKRKWIYDEPQNFPNSGMQRAVQAPRPQNKMSYHRNNKNRNAENASYIHVQRDAVRTVALNAPSRSRPTHGSYNKVHANREPKPNLSPDKYTSTSYNDSAWRKRIPFSKTYSKSEKIYPEPRRNGSK
partner: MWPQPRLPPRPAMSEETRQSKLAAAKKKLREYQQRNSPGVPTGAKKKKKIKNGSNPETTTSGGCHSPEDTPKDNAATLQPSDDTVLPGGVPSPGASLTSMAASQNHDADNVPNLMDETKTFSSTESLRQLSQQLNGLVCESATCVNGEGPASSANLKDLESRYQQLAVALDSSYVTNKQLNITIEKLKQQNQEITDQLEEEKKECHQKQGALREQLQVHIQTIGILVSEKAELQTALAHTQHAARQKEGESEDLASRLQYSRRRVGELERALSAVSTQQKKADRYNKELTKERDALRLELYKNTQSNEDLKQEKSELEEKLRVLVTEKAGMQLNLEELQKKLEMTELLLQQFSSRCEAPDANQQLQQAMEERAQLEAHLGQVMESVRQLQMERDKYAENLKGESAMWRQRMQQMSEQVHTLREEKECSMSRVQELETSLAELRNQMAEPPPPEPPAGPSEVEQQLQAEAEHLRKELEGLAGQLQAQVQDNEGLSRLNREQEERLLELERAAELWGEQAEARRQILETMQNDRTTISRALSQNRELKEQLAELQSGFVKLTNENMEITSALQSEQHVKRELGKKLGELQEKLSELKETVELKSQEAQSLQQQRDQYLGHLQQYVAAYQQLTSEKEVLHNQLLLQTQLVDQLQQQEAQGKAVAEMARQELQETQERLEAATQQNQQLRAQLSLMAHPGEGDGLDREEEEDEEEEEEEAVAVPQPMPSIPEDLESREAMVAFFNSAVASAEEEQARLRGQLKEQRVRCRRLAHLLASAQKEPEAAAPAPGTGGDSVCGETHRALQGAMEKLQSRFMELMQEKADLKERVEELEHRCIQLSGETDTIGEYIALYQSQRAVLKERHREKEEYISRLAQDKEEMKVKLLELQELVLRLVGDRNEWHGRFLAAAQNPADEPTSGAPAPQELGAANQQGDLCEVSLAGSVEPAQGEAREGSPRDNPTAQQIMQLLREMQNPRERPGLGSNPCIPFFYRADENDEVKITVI

Variants of: B1
Details: with glyr1_human GLYR1, Q49A26
N95K was tested, and the “effect of a mutation on the interaction” value was “with no effect”. For A37S, the “effect of a mutation on the interaction” value was “with no effect”.

Variants of: B2
Details: with srsf6_human SRSF6, Q13247
srsf6_human SRSF6, Q13247, sequence (Q13247 whole entry, looked up): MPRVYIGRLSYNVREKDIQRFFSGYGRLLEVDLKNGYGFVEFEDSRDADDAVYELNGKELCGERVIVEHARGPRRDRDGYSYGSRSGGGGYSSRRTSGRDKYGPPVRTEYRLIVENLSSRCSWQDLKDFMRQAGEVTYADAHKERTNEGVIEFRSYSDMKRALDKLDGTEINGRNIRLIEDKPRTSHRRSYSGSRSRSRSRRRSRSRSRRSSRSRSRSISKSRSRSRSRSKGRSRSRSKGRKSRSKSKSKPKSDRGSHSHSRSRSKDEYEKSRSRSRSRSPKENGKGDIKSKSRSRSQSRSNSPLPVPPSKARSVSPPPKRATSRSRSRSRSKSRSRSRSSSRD
With G338A the “effect of a mutation on the interaction” value was “with no effect”.

Variants of: B3
Details: with ssxt_human SS18, Q15532
ssxt_human SS18, Q15532, sequence (Q15532 whole entry): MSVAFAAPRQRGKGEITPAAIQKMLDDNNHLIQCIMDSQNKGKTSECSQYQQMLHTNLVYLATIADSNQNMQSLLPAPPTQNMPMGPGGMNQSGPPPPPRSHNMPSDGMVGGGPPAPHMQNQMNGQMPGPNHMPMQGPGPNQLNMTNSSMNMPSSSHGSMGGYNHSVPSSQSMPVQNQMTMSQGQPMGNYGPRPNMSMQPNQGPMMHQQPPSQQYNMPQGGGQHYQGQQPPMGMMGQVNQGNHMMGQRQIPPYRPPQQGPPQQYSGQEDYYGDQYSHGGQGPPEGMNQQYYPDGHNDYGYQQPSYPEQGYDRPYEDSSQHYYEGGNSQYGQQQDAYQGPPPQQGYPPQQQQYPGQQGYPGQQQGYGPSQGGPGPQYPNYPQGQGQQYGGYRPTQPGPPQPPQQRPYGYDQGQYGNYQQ
V29A was tested, and the “effect of a mutation on the interaction” value was “with no effect”.

Variants of: B4
Details: with spf45_human RBM17, Q96I25
For C236R, the “effect of a mutation on the interaction” value was “with no effect”. In the case of R348K, the “effect of a mutation on the interaction” value is reported as “with no effect”. For A244P, the “effect of a mutation on the interaction” value was “with no effect”. For H57Q, the “effect of a mutation on the interaction” value was “with no effect”.

Variants of: B5
Details: with bhe40_human BHLHE40, O14503
bhe40_human BHLHE40, O14503, sequence (O14503 whole entry): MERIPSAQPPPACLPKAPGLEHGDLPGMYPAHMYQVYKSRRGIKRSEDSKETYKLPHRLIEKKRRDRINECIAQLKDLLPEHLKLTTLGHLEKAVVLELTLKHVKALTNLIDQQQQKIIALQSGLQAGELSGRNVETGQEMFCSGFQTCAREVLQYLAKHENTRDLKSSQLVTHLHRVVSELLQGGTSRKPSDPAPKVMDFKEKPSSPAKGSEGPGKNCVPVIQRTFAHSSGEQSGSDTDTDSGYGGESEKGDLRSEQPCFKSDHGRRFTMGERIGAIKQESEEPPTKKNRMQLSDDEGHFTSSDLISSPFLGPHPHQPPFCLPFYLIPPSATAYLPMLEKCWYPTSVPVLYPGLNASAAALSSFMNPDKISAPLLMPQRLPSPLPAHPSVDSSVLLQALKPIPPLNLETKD
With R441W the “effect of a mutation on the interaction” value was “with no effect”.

Variants of: B6
Details: with goga2_human GOLGA2, Q08379
W292R was tested, and the “effect of a mutation on the interaction” value was “disrupting interaction strength”. For Y334C, the “effect of a mutation on the interaction” value was “with no effect”.
